This is an account of results in PMC7445770.

The target of the test is RNA polymerase (RNAP), core enzyme without sigma factor (E. coli (endogenous in the cell-free extract)).

In the case of “sigma factor 28 (from UniProt P0AEM6 1-239) (natural protein)”, the Kσ28: dissociation constant obtained by fitting a nonlinear ODE model to GFP/mRNA time-series responses of the pTar-tetO combinatorial promoter in E. coli TX-TL cell-free extract (29°C) amounted to 5.3 pM.
With “sigma factor 70 (from UniProt P00579 1-613) (natural protein)”, the Kσ70: dissociation constant obtained by fitting a nonlinear ODE model to GFP/mRNA time-series responses of the pTar-tetO combinatorial promoter in E. coli TX-TL cell-free extract (29°C) was found to be 0.0018 pM.
